Data as given in article PMC12548415 (Journal of Virology, 2025).

Molecular target: T1, raccoon dog transferrin receptor ectodomain (recombinant RDTfR, from residue 121, C-terminal 6x His) (raccoon dog)
T1 construct: transferrin receptor type 1 of the raccoon dog, ectodomain starting at amino acid residue 121 of XM_055316305; Cloned with the N-terminal signal peptide GP67; also called recombinant RDTfR protein; purified RDTfR; source: Sf9 cells (pFastBacI-RDTfR), purified (Ni-NTA, dialysed in PBS); not shown: His6, C-terminal, kept
Assay: BLI; virus immobilised on APS probe (Gator Prime), PBS as running buffer; three concentrations (serial dilutions) of RDTfR in PBST (PBS, 0.05% Tween-20) applied; global fit, 1:1 binding model
Conditions: both partners purified

B1: rRDPV-10 virus (rescued from the infectious cDNA clone pRDPV-10 of raccoon dog parvovirus strain RDPV/FLD/2010), capsid of VP2 (complex)
chain: MSDGAVQPDGGQPAVRNERATGSGNGSGGGGGGGSGGVGISTGTFNNQTEFKFLENGWVEITANSSRLVHLNMPESENYRRVVVNNMDKTAVNGNMALDDIHAQIVTPWSLVDANAWGVWFNPGDWQLIVNTMSELHLVSFEQEIFNVVLKTVSESATQPPTKVYNNDLTASLMVALDSNNTMPFTPAAMRSETLGFYPWKPTIPTPWRYYFQWDRTLIPSHTGTSGTPTNIYHGTDPDDVQFYTIENSVPVHLLRTGDEFATGTFFFDCKPCRLTHTWQTNRALGLPPFLNSLPQSEGATNFGDIGVQQDKRRGVTQMGNTNYITEATIMRPAEVGYSAPYYSFEASTQGPFKTPIAAGRGGAQTDENQAADGNPRYAFGRQHGQKTTTTGETPERFTYIAHQDTGRYPEGDWIQNINFNLPVTNDNVLLPTDPIGGKTGINYTNIFNTYGPLTALNNVPPVYPNGQIWDKEFDTDLKPRLHVNAPFVCQNNCPGQLFVKVAPNLTNEYDPDASANMSRIVTYSDFWWKGKLVFKAKLRASHTWNPIQQMSINVDNQFNYVPSNIGGMKIVYEKSQLAPRKLY
  Kd: 137 nM
  koff: 0.0071 s⁻¹
  kon: 51800 M⁻¹ s⁻¹
